{"source": "paper doi:10.1101/2024.10.04.616518", "about": "(2024)", "key": {"[1]": {"target": "bovine pancreatic chymotrypsin (bovine)", "experiment": "apparent Ki, intercept of IC50 vs chymotrypsin concentration"}, "[2]": {"target": "bovine pancreatic chymotrypsin (bovine)", "experiment": "apparent Ki, Morrison fit, 25 nM chymotrypsin"}}, "data": [{"binder": "ixochymostatin (natural protein) ANTGIEWPPKPQKCAEGETWKECVGSSCAELTCEHPEPSLGCTYDCNYGCYCAPDFFRNANKECVKKDKCP", "values": [{"measurement": "Ki", "setting": "[1]", "result": 16.5, "unit": "nM"}, {"measurement": "Ki", "setting": "[2]", "result": 0.99, "unit": "nM"}]}]}
